# Measured values: EP4349858A1 (CentricsBio, Inc., dated 2024)
# Legend:
# [1] = molecular target: T1, CD300c antigen (11832-H08H, Sino Biological) (UniProt Q08708 21-183); assay: binding ELISA, CD300c antigen coated
# T1 construct: Bought recombinant antigen coated on ELISA plates; the same entry is used for it
# T1 sequence (looked up): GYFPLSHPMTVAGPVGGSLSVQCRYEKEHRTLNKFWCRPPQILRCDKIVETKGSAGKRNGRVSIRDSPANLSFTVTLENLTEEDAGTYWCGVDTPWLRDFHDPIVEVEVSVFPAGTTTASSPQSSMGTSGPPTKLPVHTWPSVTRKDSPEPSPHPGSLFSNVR
# [2] = molecular target: T2, mouse CD300c antigen (mouse); assay: cell-based or functional assay
# T2 sequence (A2A7V7 whole entry, looked up): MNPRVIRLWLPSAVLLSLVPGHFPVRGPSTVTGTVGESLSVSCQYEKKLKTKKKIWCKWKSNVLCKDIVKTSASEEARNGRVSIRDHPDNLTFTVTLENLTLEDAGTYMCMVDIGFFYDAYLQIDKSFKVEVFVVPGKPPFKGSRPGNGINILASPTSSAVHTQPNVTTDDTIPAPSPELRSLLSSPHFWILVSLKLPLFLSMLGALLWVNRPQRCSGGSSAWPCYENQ
# [3] = molecular target: T3, CD300a antigen (12449-H08H, Sino Biological) (UniProt Q9UGN4 18-180); assay: binding ELISA, antigen coated on plate
# T3 construct: Bought recombinant antigen
# T3 sequence (looked up): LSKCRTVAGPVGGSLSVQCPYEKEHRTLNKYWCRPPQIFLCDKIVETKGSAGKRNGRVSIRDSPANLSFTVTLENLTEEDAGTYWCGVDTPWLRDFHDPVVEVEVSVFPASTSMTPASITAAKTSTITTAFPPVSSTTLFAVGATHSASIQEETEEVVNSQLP
binder,measurement,setting,value
"anti-CD300c monoclonal antibody CL10 (antibody, V domains shown, expressed as heavy and light chains in 293T cells, protein A purified) VH: EVQLLESGGGLVQPGGSLRLSCAASGFTFSSYGMHWVRQAPGKGLEWVSAISGSGGSTYYADSVKGRFTISRDNSKNTLYLQMNSLRAEDTAVYYCASGYGLMDVWGQGTLVTVSS VL: QSVLTQPPSASGTPGQRVTISCTRSSGIIASNYVQWYQQLPGTAPKLLIYRNNQRPSGVPDRFSGSKSGTSASLAISGLRSEDEADYYCSSYAGNNNLVFGGGTKLTVL",EC50,[1],≤ 0.2 µg/mL
same,"cancer cell proliferation inhibitory effect, CT26 mouse colorectal cancer cell line, CCK-8, 10 ug/mL antibody, 5 days",[2],15%
"anti-CD300c monoclonal antibody CK2 (antibody, V domains shown, expressed as heavy and light chains in 293T cells, protein A purified) VH: EVQLLESGGGLVQPGGSLRLSCAASGFTFSSYGMHWVRQAPGKGLEWVSAISGSGTSIYYADSVKGRFTISRDNSKNTLYLQMNSLRAEDTAVYYCARGGTAFDYWGQGTLVTVSS VL: EIVLTQSPGTLSLSPGERATLSCRASQRSDNYLAWYQQKPGQAPRLLIYDASNRATGIPDRFSGSGSGTDFTLTISRLEPEDFAVYYCQQSYSTPFTFGQGTKVETK",EC50,[1],≤ 0.2 µg/mL
"anti-CD300c monoclonal antibody SK11 (antibody, V domains shown, expressed as heavy and light chains in 293T cells, protein A purified) VH: RVQLLESGGGLVQPGGSLRLSCAASGFTFSTYGMHWVRQAPGKGLEWVSAISGSGGSTYYADSVKGRFTISRDNSKNTLYLQMNSLRAEDTAVYYCARGLSGLDYWGQGTLVTVSS VL: EIVLTQSPGTLSLSPGERATLSCRSSQGITNYLAWYQQKPGQAPRLLIYDASNRATGIPDRFSGSGSGTDFTLTISRLEPEDFAVYYCQQSYSTPLTFGQGTKVEIK",EC50,[1],≤ 0.2 µg/mL
"anti-CD300c monoclonal antibody SK14 (antibody, V domains shown, expressed as heavy and light chains in 293T cells, protein A purified) VH: EVQLLESGGGLVQPGGSLRLSCAASGFTFSNFAIAWVRQAPGKGLEWVSAISGRGTSTYYADSVKGRFTISRDNSKNTLYLQMNSLRAEDTAVYYCARGVSGFDSWGQGTLVTVSS VL: EIVLTQSPGTLSLSPGERATLSCRASQSISSHLAWYQQKPGQAPRLLIYDTSNRATGIPDRFSGSGSGTDFTLTISRLEPEDFAVYYCQQSYSTPFTFGQGTKVEIK",EC50,[1],≤ 0.2 µg/mL
"anti-CD300c monoclonal antibody CK1 (antibody, V domains shown, Selected as scFv phage clone (kappa library); expressed from separate heavy and light chain vectors in 293T cells, purified on protein A) VH: EVQLLESGGGLVQPGGSLRLSCAASGFTFSRYAMTWVRQAPGKGLEWVSSMSGTGGTTYYADSVKGRFTISRDNSKNTLYLQMNSLRAEDTAVYYCARGAYGFDHWGQGTLVTVSS VL: EIVLTQSPGTLSLSPGERATLSCRASQSIGNYLNWYQQKPGQAPRLLIYDASNLETGIPDRFSGSGSGTDFTLTISRLEPEDFAVYYCQQSSAIPYTFGQGTKVEIK",EC50,[1],≤ 0.2 µg/mL
"anti-CD300c monoclonal antibody SK17 (antibody, V domains shown, expressed as heavy and light chains in 293T cells, protein A purified) VH: EVQLLESGGGLVQPGGSLRLSCAASGFTFSSYYWSWVRQAPGKGLEWVSTITGSGGSTDYANSVKGRFTISRDNSKNTLYLQMNSLRAEDTAVYYCATGGGIFDYWGQGTLVTVSS VL: EIVLTQSPGTLSLSPGERATLSCQASQTISNYLNWYQQKPGQAPRLLIYDASNRATGIPDRFSGSGSGTDFTLTISRLEPEDFAVYYCQQYNSYPPSFGQGTKVEIK",EC50,[1],≤ 0.2 µg/mL
"anti-CD300c monoclonal antibody CL6 (antibody, V domains shown, expressed as heavy and light chains in 293T cells, protein A purified) VH: EVQLLESGGGLVQPGGSLRLSCAASGFTFSSYGMHWVRQAPGKGLEWVSAISGSGGSTYYADSVKGRFTISRDNSKNTLYLQMNSLRAEDTAVYYCAVSGAGRGFFDYWGQGTLVTVSS VL: QSVLTQPPSASGTPGQRVTISCSGSSSNIGSNYVYWYQQLPGTAPKLLIYEDNKRPSGVPDRFSGSKSGTSASLAISGLRSEDEADYYCSSYTSSSTVIFGGGTKLTVL",EC50,[1],≤ 0.2 µg/mL
"anti-CD300c monoclonal antibody CL7 (antibody, V domains shown, expressed as heavy and light chains in 293T cells, protein A purified) VH: EVQLLESGGGLVQPGGSLRLSCAASGFTFSRYAMSWVRQAPGKGLEWVSAISGSGGSTYYADSVKGRFTISRDNSKNTLYLQMNSLRAEDTAVYYCARSSQGIFDIWGQGTLVTVSS VL: QSVLTQPPSASGTPGQRVTISCSGNNIGTRRVHWYQQLPDTAPKLLIYSKNNRPSGVPDRFSGSKSGTSASLAISGLRSEDEADYYCAAWDDSLSGPVFGGGTKLTVL",EC50,[1],≤ 0.2 µg/mL
same,"cancer cell proliferation inhibitory effect, CT26 mouse colorectal cancer cell line, CCK-8, 10 ug/mL antibody, 5 days",[2],66%
same,binding result,[3],no binding
"anti-CD300c monoclonal antibody CL9 (antibody, V domains shown, expressed as heavy and light chains in 293T cells, protein A purified) VH: EVQLLESGGGLVQPGGSLRLSCAASGFTFSSYYWSWVRQAPGKGLEWVSAISGSGGSTYYADSVKGRFTISRDNSKNTLYLQMNSLRAEDTAVYYCARIDVYGFDIWGQGTLVTVSS VL: QSVLTQPPSASGTPGQRVTISCSGSTSNIGTNYVYWYQQLPGTAPKLLIYDNNNRPSGVPDRFSGSKSGTSASLAISGLRSEDEADYYCQTWDSSTDVVFGGGTKLTVL",EC50,[1],≤ 0.2 µg/mL
"anti-CD300c monoclonal antibody CL5 (antibody, V domains shown, expressed as heavy and light chains in 293T cells, protein A purified) VH: RVQLLESGGGLVQPGGSLRLSCAASGFTFSSYAMHWVRQAPGKGLEWVSSISGGGYGTYYADSVKGRFTISRDNSKNTLYLQMNSLRAEDTAVYYCARSTVWAFDIWGQGTLVTVSS VL: QSVLTQPPSASGTPGQRVTISCSGNNIGSKSVHWYQQLPGTAPKLLIYDVSKRPSERPDRFSGSKSGTSASLAISDLRSEDEADYYCQSFDSSGTWIFGGGTKLTVL",EC50,[1],≤ 0.2 µg/mL
"anti-CD300c monoclonal antibody CL4 (antibody, V domains shown, expressed as heavy and light chains in 293T cells, protein A purified) VH: RVQLLESGGGLVQPGGSLRLSCAASGFTFGSNYMSWVRQAPGKGLEWVSTISGSGTSTYYADSLKGRFTISRDNSKNTLYLQMNSLRAEDTAVYYCARGMWGMDVWGQGTLVTVSS VL: QSVLTQPPSASGTPGQRVTISCTGKHRHTVNWYQLLPGTAPKLLIYLDSERPSGVPDRFSGSKSGTSASLAISGLRSEDEADYYCQSYDSSSVVFGGGTKLTVL",EC50,[1],≤ 0.2 µg/mL
"anti-CD300c monoclonal antibody SL18 (antibody, V domains shown, expressed as heavy and light chains in 293T cells, protein A purified) VH: RVQLLESGGGLVQPGGSLRLSCAASGFTFSDYHMHWVRQAPGKGLEWVSTISSSGGYTYYAESVKSRFTISRDNSKNTLYLQMNSLRAEDTAVYYCARSIRLPLDYWGQGTLVTVSS VL: QSVLTQPPSASGTPGQRVTISCSGNNIGSKGVHWYQQLPGTAPKLLIYEDSKRPSGVRDRFSGSKSGTSASLAISGLRSEDEADYYCQSYDSTKGVVFGGGTKLTVL",EC50,[1],≤ 0.2 µg/mL
same,"cancer cell proliferation inhibitory effect, CT26 mouse colorectal cancer cell line, CCK-8, 10 ug/mL antibody, 5 days",[2],38%
"anti-CD300c monoclonal antibody SK13 (antibody, V domains shown, expressed as heavy and light chains in 293T cells, protein A purified) VH: RVQLLESGGGLVQPGGSLRLSCAASGFTFSDYAMSWVRQAPGKGLEWVSSISSSSSYIYYTDSVKGRFTISRDNSKNTLYLQMNSLRAEDTAVYYCARGGYGFDYWGQGTLVTVSS VL: EIVLTQSPGTLSLSPGERATLSCRASQSISSYLNWYQQKPGQAPRLLIYSASSRPQGIPDRFSGSGSGTDFTLTISRLEPEDFAVYYCQQYDDLPFTFGQGTKVEIK",EC50,[1],≤ 0.2 µg/mL
"anti-CD300c monoclonal antibody SK12 (antibody, V domains shown, expressed as heavy and light chains in 293T cells, protein A purified) VH: RVQLLESGGGLVQPGGSLRLSCAASGFTFSSYAMHWVRQAPGKGLEWVSAISGSGGDTYHADSVKGRFTISRDNSKNTLYLQMNSLRAEDTAVYYCTRGLSGFDYWGQGTLVTVSS VL: EIVLTQSPGTLSLSPGERATLSCRASQSISSYLNWYQQKPGQAPRLLIYDASNRAPGIPDRFSGSGSGTDFTLTISRLEPEDFAVYYCQQSYSIPITFGQGTKVEIKF",EC50,[1],≤ 0.2 µg/mL
